Experimental findings from patent US20240270846A1 (published 2024) are described below.

The target of this assay is T1, CD3 epsilon homodimer protein (UniProt P07766 23-126).
T1 construct: also called CD3 (CD3 epsilon)
The assay can be described thus: SPR (Biacore T200), CD3e homodimer on CM4 chip, antibody as analyte; KD ratio vs unaltered GLS3000. (In general: SPR reads the build-up and loss of mass on a sensor chip optically.)
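Further: CD3 epsilon homodimer amine-coupled to the sensor surface, antibodies injected as analyte at 25 °C with HBS-EP+ running buffer.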

T1 sequence (P07766 23-126): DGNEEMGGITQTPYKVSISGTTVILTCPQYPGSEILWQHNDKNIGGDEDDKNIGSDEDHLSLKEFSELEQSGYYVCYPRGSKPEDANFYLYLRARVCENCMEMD

B1: CE115HA000/GLS3000 S56T one-arm antibody (antibody, human IgG1, kappa, L234A L235A, N297A, name in Kabat numbering)
heavy: QVQLVESGGGVVQPGRSLRLSCAASGFTFSNAWMHWVRQAPGKGLEWVAQIKAKSNNYATYYAESVKGRFTISRDDSKNSLYLQMNSLKTEDTAVYYCRYVHYGAYYGVDAWGQGTTVTVSSASTKGPSVFPLAPSSKSTSGGTAALGCLVKDYFPEPVTVSWNSGALTSGVHTFPAVLQSSGLYSLSSVVTVPSSSLGTQTYICNVNHKPSNTKVDKKVEPKSCDKTHTCPPCPAPEAAGGPSVFLFPPKPKDTLMISRTPEVTCVVVDVSHEDPEVKFNWYVDGVEVHNAKTKPREEQYASTYRVVSVLTVLHQDWLNGKEYKCKVSNKALPAPIEKTISKAKGQPREPQVYTLPPSRCELTKNQVSLSCAVKGFYPSDIAVEWESNGQPENNYKTTPPVLDSDGSFFLVSKLTVDKSRWQQGNVFSCSVMHEALHNHYTQKSLSLSPDYKDDDDK
chain: EPKSSDKTHTCPPCPAPELLGGPSVFLFPPKPKDTLMISRTPEVTCVVVDVSHEDPEVKFNWYVDGVEVHNAKTKPREEQYNSTYRVVSVLTVLHQDWLNGKEYKCKVSNKALPAPIEKTISKAKGQPREPQVCTLPPSRDELTKNQVSLWCLVKGFYPSDIAVEWESNGQPENNYKTTPPVLDSDGSFFLYSKLTVDKSRWQQGNVFSCSVMHEALHNRYTQKSLSLSP
light: DIVMTQSPLSLPVTPGEPASISCRSSQSLVHSNRNTYLHWYQQKPGQAPRLLIYKVSNRFTGVPDRFSGSGSGTDFTLKISRVEAEDVGVYYCGQGTQVPYTFGQGTKLEIKRTVAAPSVFIFPPSDEQLKSGTASVVCLLNNFYPREAKVQWKVDNALQSGNSQESVTEQDSKDSTYSLSSTLTLSKADYEKHKVYACEVTHQGLSSPVTKSFNRGEC
notes: one-arm IgG1
For the molecule B1, the “KD ratio to GLS3000” value amounted to 1.01 ratio.

B2: CE115HA000/GLS3000 S56V one-arm antibody (antibody, human IgG1, kappa, L234A L235A, N297A, name in Kabat numbering)
heavy: QVQLVESGGGVVQPGRSLRLSCAASGFTFSNAWMHWVRQAPGKGLEWVAQIKAKSNNYATYYAESVKGRFTISRDDSKNSLYLQMNSLKTEDTAVYYCRYVHYGAYYGVDAWGQGTTVTVSSASTKGPSVFPLAPSSKSTSGGTAALGCLVKDYFPEPVTVSWNSGALTSGVHTFPAVLQSSGLYSLSSVVTVPSSSLGTQTYICNVNHKPSNTKVDKKVEPKSCDKTHTCPPCPAPEAAGGPSVFLFPPKPKDTLMISRTPEVTCVVVDVSHEDPEVKFNWYVDGVEVHNAKTKPREEQYASTYRVVSVLTVLHQDWLNGKEYKCKVSNKALPAPIEKTISKAKGQPREPQVYTLPPSRCELTKNQVSLSCAVKGFYPSDIAVEWESNGQPENNYKTTPPVLDSDGSFFLVSKLTVDKSRWQQGNVFSCSVMHEALHNHYTQKSLSLSPDYKDDDDK
chain: EPKSSDKTHTCPPCPAPELLGGPSVFLFPPKPKDTLMISRTPEVTCVVVDVSHEDPEVKFNWYVDGVEVHNAKTKPREEQYNSTYRVVSVLTVLHQDWLNGKEYKCKVSNKALPAPIEKTISKAKGQPREPQVCTLPPSRDELTKNQVSLWCLVKGFYPSDIAVEWESNGQPENNYKTTPPVLDSDGSFFLYSKLTVDKSRWQQGNVFSCSVMHEALHNRYTQKSLSLSP
light: DIVMTQSPLSLPVTPGEPASISCRSSQSLVHSNRNTYLHWYQQKPGQAPRLLIYKVSNRFVGVPDRFSGSGSGTDFTLKISRVEAEDVGVYYCGQGTQVPYTFGQGTKLEIKRTVAAPSVFIFPPSDEQLKSGTASVVCLLNNFYPREAKVQWKVDNALQSGNSQESVTEQDSKDSTYSLSSTLTLSKADYEKHKVYACEVTHQGLSSPVTKSFNRGEC
notes: one-arm IgG1
For the molecule B2, the “KD ratio to GLS3000” value turned out to be 0.94 ratio.

B3: CE115HA000/GLS3000 T31D one-arm antibody (antibody, human IgG1, kappa, L234A L235A, N297A, name in Kabat numbering)
heavy: QVQLVESGGGVVQPGRSLRLSCAASGFTFSNAWMHWVRQAPGKGLEWVAQIKAKSNNYATYYAESVKGRFTISRDDSKNSLYLQMNSLKTEDTAVYYCRYVHYGAYYGVDAWGQGTTVTVSSASTKGPSVFPLAPSSKSTSGGTAALGCLVKDYFPEPVTVSWNSGALTSGVHTFPAVLQSSGLYSLSSVVTVPSSSLGTQTYICNVNHKPSNTKVDKKVEPKSCDKTHTCPPCPAPEAAGGPSVFLFPPKPKDTLMISRTPEVTCVVVDVSHEDPEVKFNWYVDGVEVHNAKTKPREEQYASTYRVVSVLTVLHQDWLNGKEYKCKVSNKALPAPIEKTISKAKGQPREPQVYTLPPSRCELTKNQVSLSCAVKGFYPSDIAVEWESNGQPENNYKTTPPVLDSDGSFFLVSKLTVDKSRWQQGNVFSCSVMHEALHNHYTQKSLSLSPDYKDDDDK
chain: EPKSSDKTHTCPPCPAPELLGGPSVFLFPPKPKDTLMISRTPEVTCVVVDVSHEDPEVKFNWYVDGVEVHNAKTKPREEQYNSTYRVVSVLTVLHQDWLNGKEYKCKVSNKALPAPIEKTISKAKGQPREPQVCTLPPSRDELTKNQVSLWCLVKGFYPSDIAVEWESNGQPENNYKTTPPVLDSDGSFFLYSKLTVDKSRWQQGNVFSCSVMHEALHNRYTQKSLSLSP
light: DIVMTQSPLSLPVTPGEPASISCRSSQSLVHSNRNDYLHWYQQKPGQAPRLLIYKVSNRFSGVPDRFSGSGSGTDFTLKISRVEAEDVGVYYCGQGTQVPYTFGQGTKLEIKRTVAAPSVFIFPPSDEQLKSGTASVVCLLNNFYPREAKVQWKVDNALQSGNSQESVTEQDSKDSTYSLSSTLTLSKADYEKHKVYACEVTHQGLSSPVTKSFNRGEC
notes: one-arm IgG1
As to B3, the “KD ratio to GLS3000” value was determined as 30.9 ratio.

B4: CE115HA000/GLS3000 S56Y one-arm antibody (antibody, human IgG1, kappa, L234A L235A, N297A, name in Kabat numbering)
heavy: QVQLVESGGGVVQPGRSLRLSCAASGFTFSNAWMHWVRQAPGKGLEWVAQIKAKSNNYATYYAESVKGRFTISRDDSKNSLYLQMNSLKTEDTAVYYCRYVHYGAYYGVDAWGQGTTVTVSSASTKGPSVFPLAPSSKSTSGGTAALGCLVKDYFPEPVTVSWNSGALTSGVHTFPAVLQSSGLYSLSSVVTVPSSSLGTQTYICNVNHKPSNTKVDKKVEPKSCDKTHTCPPCPAPEAAGGPSVFLFPPKPKDTLMISRTPEVTCVVVDVSHEDPEVKFNWYVDGVEVHNAKTKPREEQYASTYRVVSVLTVLHQDWLNGKEYKCKVSNKALPAPIEKTISKAKGQPREPQVYTLPPSRCELTKNQVSLSCAVKGFYPSDIAVEWESNGQPENNYKTTPPVLDSDGSFFLVSKLTVDKSRWQQGNVFSCSVMHEALHNHYTQKSLSLSPDYKDDDDK
chain: EPKSSDKTHTCPPCPAPELLGGPSVFLFPPKPKDTLMISRTPEVTCVVVDVSHEDPEVKFNWYVDGVEVHNAKTKPREEQYNSTYRVVSVLTVLHQDWLNGKEYKCKVSNKALPAPIEKTISKAKGQPREPQVCTLPPSRDELTKNQVSLWCLVKGFYPSDIAVEWESNGQPENNYKTTPPVLDSDGSFFLYSKLTVDKSRWQQGNVFSCSVMHEALHNRYTQKSLSLSP
light: DIVMTQSPLSLPVTPGEPASISCRSSQSLVHSNRNTYLHWYQQKPGQAPRLLIYKVSNRFYGVPDRFSGSGSGTDFTLKISRVEAEDVGVYYCGQGTQVPYTFGQGTKLEIKRTVAAPSVFIFPPSDEQLKSGTASVVCLLNNFYPREAKVQWKVDNALQSGNSQESVTEQDSKDSTYSLSSTLTLSKADYEKHKVYACEVTHQGLSSPVTKSFNRGEC
notes: one-arm IgG1
For the molecule B4, the “KD ratio to GLS3000” value was 1.1 ratio.

B5: CE115HA000/GLS3000 S56W one-arm antibody (antibody, human IgG1, kappa, L234A L235A, N297A, name in Kabat numbering)
heavy: QVQLVESGGGVVQPGRSLRLSCAASGFTFSNAWMHWVRQAPGKGLEWVAQIKAKSNNYATYYAESVKGRFTISRDDSKNSLYLQMNSLKTEDTAVYYCRYVHYGAYYGVDAWGQGTTVTVSSASTKGPSVFPLAPSSKSTSGGTAALGCLVKDYFPEPVTVSWNSGALTSGVHTFPAVLQSSGLYSLSSVVTVPSSSLGTQTYICNVNHKPSNTKVDKKVEPKSCDKTHTCPPCPAPEAAGGPSVFLFPPKPKDTLMISRTPEVTCVVVDVSHEDPEVKFNWYVDGVEVHNAKTKPREEQYASTYRVVSVLTVLHQDWLNGKEYKCKVSNKALPAPIEKTISKAKGQPREPQVYTLPPSRCELTKNQVSLSCAVKGFYPSDIAVEWESNGQPENNYKTTPPVLDSDGSFFLVSKLTVDKSRWQQGNVFSCSVMHEALHNHYTQKSLSLSPDYKDDDDK
chain: EPKSSDKTHTCPPCPAPELLGGPSVFLFPPKPKDTLMISRTPEVTCVVVDVSHEDPEVKFNWYVDGVEVHNAKTKPREEQYNSTYRVVSVLTVLHQDWLNGKEYKCKVSNKALPAPIEKTISKAKGQPREPQVCTLPPSRDELTKNQVSLWCLVKGFYPSDIAVEWESNGQPENNYKTTPPVLDSDGSFFLYSKLTVDKSRWQQGNVFSCSVMHEALHNRYTQKSLSLSP
light: DIVMTQSPLSLPVTPGEPASISCRSSQSLVHSNRNTYLHWYQQKPGQAPRLLIYKVSNRFWGVPDRFSGSGSGTDFTLKISRVEAEDVGVYYCGQGTQVPYTFGQGTKLEIKRTVAAPSVFIFPPSDEQLKSGTASVVCLLNNFYPREAKVQWKVDNALQSGNSQESVTEQDSKDSTYSLSSTLTLSKADYEKHKVYACEVTHQGLSSPVTKSFNRGEC
notes: one-arm IgG1
Take B5: the “KD ratio to GLS3000” value was 1.12 ratio.

B6: CE115HA000/GLS3000 T31E one-arm antibody (antibody, human IgG1, kappa, L234A L235A, N297A, name in Kabat numbering)
heavy: QVQLVESGGGVVQPGRSLRLSCAASGFTFSNAWMHWVRQAPGKGLEWVAQIKAKSNNYATYYAESVKGRFTISRDDSKNSLYLQMNSLKTEDTAVYYCRYVHYGAYYGVDAWGQGTTVTVSSASTKGPSVFPLAPSSKSTSGGTAALGCLVKDYFPEPVTVSWNSGALTSGVHTFPAVLQSSGLYSLSSVVTVPSSSLGTQTYICNVNHKPSNTKVDKKVEPKSCDKTHTCPPCPAPEAAGGPSVFLFPPKPKDTLMISRTPEVTCVVVDVSHEDPEVKFNWYVDGVEVHNAKTKPREEQYASTYRVVSVLTVLHQDWLNGKEYKCKVSNKALPAPIEKTISKAKGQPREPQVYTLPPSRCELTKNQVSLSCAVKGFYPSDIAVEWESNGQPENNYKTTPPVLDSDGSFFLVSKLTVDKSRWQQGNVFSCSVMHEALHNHYTQKSLSLSPDYKDDDDK
chain: EPKSSDKTHTCPPCPAPELLGGPSVFLFPPKPKDTLMISRTPEVTCVVVDVSHEDPEVKFNWYVDGVEVHNAKTKPREEQYNSTYRVVSVLTVLHQDWLNGKEYKCKVSNKALPAPIEKTISKAKGQPREPQVCTLPPSRDELTKNQVSLWCLVKGFYPSDIAVEWESNGQPENNYKTTPPVLDSDGSFFLYSKLTVDKSRWQQGNVFSCSVMHEALHNRYTQKSLSLSP
light: DIVMTQSPLSLPVTPGEPASISCRSSQSLVHSNRNEYLHWYQQKPGQAPRLLIYKVSNRFSGVPDRFSGSGSGTDFTLKISRVEAEDVGVYYCGQGTQVPYTFGQGTKLEIKRTVAAPSVFIFPPSDEQLKSGTASVVCLLNNFYPREAKVQWKVDNALQSGNSQESVTEQDSKDSTYSLSSTLTLSKADYEKHKVYACEVTHQGLSSPVTKSFNRGEC
notes: one-arm IgG1
Turning to B6, the “KD ratio to GLS3000” value amounted to 1.59 ratio.
